The results in this text go back to article PMC5141469 (Scientific Reports, 2016).

T1: YajC (E. coli, UniProt P0ADZ7 1-110)
T1 construct: YajC of E. coli; also called subunit of SecDF-YajC; subunit of the holo-translocon (HTL)
T1 sequence (looked up): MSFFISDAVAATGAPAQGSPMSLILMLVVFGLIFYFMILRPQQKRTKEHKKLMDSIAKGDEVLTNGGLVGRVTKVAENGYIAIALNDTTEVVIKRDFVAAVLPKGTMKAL

B1: SecG (natural protein, E. coli, UniProt P0AG99 1-110, looked up)
chain: MYEALLVVFLIVAIGLVGLIMLQQGKGADMGASFGAGASATLFGSSGSGNFMTRMTALLATLFFIISLVLGNINSNKTNKGSEWENLSAPAKTEQTQPAAPAKPTSDIPN
notes: SecG, subunit of the E. coli SecYEG protein-conducting channel; also called subunit of SecYEG; subunit of the holo-translocon (HTL)
B2: YidC (natural protein, E. coli, UniProt P25714 1-548, looked up)
chain: MDSQRNLLVIALLFVSFMIWQAWEQDKNPQPQAQQTTQTTTTAAGSAADQGVPASGQGKLISVKTDVLDLTINTRGGDVEQALLPAYPKELNSTQPFQLLETSPQFIYQAQSGLTGRDGPDNPANGPRPLYNVEKDAYVLAEGQNELQVPMTYTDAAGNTFTKTFVLKRGDYAVNVNYNVQNAGEKPLEISSFGQLKQSITLPPHLDTGSSNFALHTFRGAAYSTPDEKYEKYKFDTIADNENLNISSKGGWVAMLQQYFATAWIPHNDGTNNFYTANLGNGIAAIGYKSQPVLVQPGQTGAMNSTLWVGPEIQDKMAAVAPHLDLTVDYGWLWFISQPLFKLLKWIHSFVGNWGFSIIIITFIVRGIMYPLTKAQYTSMAKMRMLQPKIQAMRERLGDDKQRISQEMMALYKAEKVNPLGGCFPLLIQMPIFLALYYMLMGSVELRQAPFALWIHDLSAQDPYYILPILMGVTMFFIQKMSPTTVTDPMQQKIMTFMPVIFTVFFLWFPSGLVLYYIVSNLVTIIQQQLIYRGLEKRGLHSREKKKS
notes: YidC of E. coli; also called membrane 'insertase' YidC; subunit of the holo-translocon (HTL); not shown: His6, C-terminal, kept
B3: SecY (natural protein, E. coli, UniProt P0AGA2 1-443, looked up)
chain: MAKQPGLDFQSAKGGLGELKRRLLFVIGALIVFRIGSFIPIPGIDAAVLAKLLEQQRGTIIEMFNMFSGGALSRASIFALGIMPYISASIIIQLLTVVHPTLAEIKKEGESGRRKISQYTRYGTLVLAIFQSIGIATGLPNMPGMQGLVINPGFAFYFTAVVSLVTGTMFLMWLGEQITERGIGNGISIIIFAGIVAGLPPAIAHTIEQARQGDLHFLVLLLVAVLVFAVTFFVVFVERGQRRIVVNYAKRQQGRRVYAAQSTHLPLKVNMAGVIPAIFASSIILFPATIASWFGGGTGWNWLTTISLYLQPGQPLYVLLYASAIIFFCFFYTALVFNPRETADNLKKSGAFVPGIRPGEQTAKYIDKVMTRLTLVGALYITFICLIPEFMRDAMKVPFYFGGTSLLIVVVVIMDFMAQVQTLMMSSQYESALKKANLKGYGR
notes: SecY, subunit of the E. coli SecYEG protein-conducting channel; also called subunit of SecYEG; subunit of the holo-translocon (HTL)
B4: SecF (natural protein, E. coli, UniProt P0AG93 1-323, looked up)
chain: MAQEYTVEQLNHGRKVYDFMRWDYWAFGISGLLLIAAIVIMGVRGFNWGLDFTGGTVIEITLEKPAEIDVMRDALQKAGFEEPMLQNFGSSHDIMVRMPPAEGETGGQVLGSQVLKVINESTNQNAAVKRIEFVGPSVGADLAQTGAMALMAALLSILVYVGFRFEWRLAAGVVIALAHDVIITLGILSLFHIEIDLTIVASLMSVIGYSLNDSIVVSDRIRENFRKIRRGTPYEIFNVSLTQTLHRTLITSGTTLMVILMLYLFGGPVLEGFSLTMLIGVSIGTASSIYVASALALKLGMKREHMLQQKVEKEGADQPSILP
notes: SecF of E. coli; also called subunit of SecDF; subunit of the holo-translocon (HTL)
B5: SecD (natural protein, E. coli, UniProt P0AG90 1-615, looked up)
chain: MLNRYPLWKYVMLIVVIVIGLLYALPNLFGEDPAVQITGARGVAASEQTLIQVQKTLQEEKITAKSVALEEGAILARFDSTDTQLRAREALMGVMGDKYVVALNLAPATPRWLAAIHAEPMKLGLDLRGGVHFLMEVDMDTALGKLQEQNIDSLRSDLREKGIPYTTVRKENNYGLSITFRDAKARDEAIAYLSKRHPDLVISSQGSNQLRAVMSDARLSEAREYAVQQNINILRNRVNQLGVAEPVVQRQGADRIVVELPGIQDTARAKEILGATATLEFRLVNTNVDQAAAASGRVPGDSEVKQTREGQPVVLYKRVILTGDHITDSTSSQDEYNQPQVNISLDSAGGNIMSNFTKDNIGKPMATLFVEYKDSGKKDANGRAVLVKQEEVINIANIQSRLGNSFRITGINNPNEARQLSLLLRAGALIAPIQIVEERTIGPTLGMQNIEQGLEACLAGLLVSILFMIIFYKKFGLIATSALIANLILIVGIMSLLPGATLSMPGIAGIVLTLAVAVDANVLINERIKEELSNGRTVQQAIDEGYRGAFSSIFDANITTLIKVIILYAVGTGAIKGFAITTGIGVATSMFTAIVGTRAIVNLLYGGKRVKKLSI
notes: SecD of E. coli; also called subunit of SecDF; subunit of the holo-translocon (HTL); not shown: His6, C-terminal, kept
B6: SecE (natural protein, E. coli, UniProt P0AG96 1-127, looked up)
chain: MSANTEAQGSGRGLEAMKWVVVVALLLVAIVGNYLYRDIMLPLRALAVVILIAAAGGVALLTTKGKATVAFAREARTEVRKVIWPTRQETLHTTLIVAAVTAVMSLILWGLDGILVRLVSFITGLRF
notes: SecE, subunit of the E. coli SecYEG protein-conducting channel; also called subunit of SecYEG; subunit of the holo-translocon (HTL); not shown: His6, N-terminal, kept

This test addresses T1, YajC. Kind of test: SEC + AUC; co-purified detergent-solubilised (DDM) HTL; ultracentrifugation 16 h at 35,000 rpm, 10 °C, absorbance at 280 nm and interference. Conditions: both partners purified.
As to B1, the stoichiometry N (commonly a count of units in the complex or per binding partner) stood at 1.

Regarding B2, the “stoichiometry N” value came out at 1.

For the molecule B3, the “stoichiometry N” value came to 1.

Regarding B4, the “stoichiometry N” value turned out to be 1.

As to B5, the “stoichiometry N” value was found to be 1.

Take B6: the “stoichiometry N” value was 1.
